± gives the uncertainty stated by the source.
B1: Ankyrin repeat and SAM domain-containing protein 6, residues 774 to 836; numbered along this chain, Q68DC2 (parent)
chain: DEDELTGILKKLSLEKYQPIFEEQEVDMEAFLTLTDGDLKELGIKTDGSRQQILAAISELNAG

Variants of: B1
Experiment: abundance fitness (aPCA) (normalised: wild type 0, dead -1); higher = more abundant; growth selection in yeast, the domain comes from the species named
Settings: Homo sapiens

Variant | abundance fitness
DEDELTGILKKLSKEKYQPIFEEQEVDMEAFLTLTDGDLKELGIKTDGSRQQILAAISELNAG [L14K] | -0.918 ± 0.12
DEDELTGILKKLSHEKYQPIFEEQEVDMEAFLTLTDGDLKELGIKTDGSRQQILAAISELNAG [L14H] | -1.01 ± 0.34
DEDELTGILKKLSAEKYQPIFEEQEVDMEAFLTLTDGDLKELGIKTDGSRQQILAAISELNAG [L14A] | -0.94 ± 0.084
DEDELTGILKKLSYEKYQPIFEEQEVDMEAFLTLTDGDLKELGIKTDGSRQQILAAISELNAG [L14Y] | -0.97 ± 0.12
DEDELTGILKKLSIEKYQPIFEEQEVDMEAFLTLTDGDLKELGIKTDGSRQQILAAISELNAG [L14I] | -0.332 ± 0.095
DEDELTGILKKLSFEKYQPIFEEQEVDMEAFLTLTDGDLKELGIKTDGSRQQILAAISELNAG [L14F] | -0.583 ± 0.12
DEDELTGILKKLSGEKYQPIFEEQEVDMEAFLTLTDGDLKELGIKTDGSRQQILAAISELNAG [L14G] | -1.05 ± 0.083
DEDELTGILKKLSVEKYQPIFEEQEVDMEAFLTLTDGDLKELGIKTDGSRQQILAAISELNAG [L14V] | -0.655 ± 0.069
DEDELTGILKKLSTEKYQPIFEEQEVDMEAFLTLTDGDLKELGIKTDGSRQQILAAISELNAG [L14T] | -1.37 ± 0.16
DEDELTGILKKLSMEKYQPIFEEQEVDMEAFLTLTDGDLKELGIKTDGSRQQILAAISELNAG [L14M] | -0.303 ± 0.058
DEDELTGILKKLSWEKYQPIFEEQEVDMEAFLTLTDGDLKELGIKTDGSRQQILAAISELNAG [L14W] | -0.946 ± 0.088
DEDELTGILKKLSEEKYQPIFEEQEVDMEAFLTLTDGDLKELGIKTDGSRQQILAAISELNAG [L14E] | -0.777 ± 0.1
DEDELTGILKKLSNEKYQPIFEEQEVDMEAFLTLTDGDLKELGIKTDGSRQQILAAISELNAG [L14N] | -1.42 ± 0.41
DEDELTGILKKLSPEKYQPIFEEQEVDMEAFLTLTDGDLKELGIKTDGSRQQILAAISELNAG [L14P] | -0.845 ± 0.1
DEDELTGILKKLSCEKYQPIFEEQEVDMEAFLTLTDGDLKELGIKTDGSRQQILAAISELNAG [L14C] | -0.64 ± 0.078
DEDELTGILKKLSQEKYQPIFEEQEVDMEAFLTLTDGDLKELGIKTDGSRQQILAAISELNAG [L14Q] | -1.17 ± 0.21
DEDELTGILKKLSLERYQPIFEEQEVDMEAFLTLTDGDLKELGIKTDGSRQQILAAISELNAG [K16R] | -0.203 ± 0.054
DEDELTGILKKLSLECYQPIFEEQEVDMEAFLTLTDGDLKELGIKTDGSRQQILAAISELNAG [K16C] | -0.083 ± 0.073
DEDELTGILKKLSLEQYQPIFEEQEVDMEAFLTLTDGDLKELGIKTDGSRQQILAAISELNAG [K16Q] | -0.253 ± 0.13
DEDELTGILKKLSLEYYQPIFEEQEVDMEAFLTLTDGDLKELGIKTDGSRQQILAAISELNAG [K16Y] | -0.251 ± 0.066
DEDELTGILKKLSLEIYQPIFEEQEVDMEAFLTLTDGDLKELGIKTDGSRQQILAAISELNAG [K16I] | -0.408 ± 0.18
DEDELTGILKKLSLEMYQPIFEEQEVDMEAFLTLTDGDLKELGIKTDGSRQQILAAISELNAG [K16M] | -0.084 ± 0.086

Variant | abundance fitness
DEDELTGILKKLSLEHYQPIFEEQEVDMEAFLTLTDGDLKELGIKTDGSRQQILAAISELNAG [K16H] | 0.011 ± 0.19
DEDELTGILKKLSLEEYQPIFEEQEVDMEAFLTLTDGDLKELGIKTDGSRQQILAAISELNAG [K16E] | 0.175 ± 0.076
DEDELTGILKKLSLEVYQPIFEEQEVDMEAFLTLTDGDLKELGIKTDGSRQQILAAISELNAG [K16V] | -0.113 ± 0.063
DEDELTGILKKLSLEFYQPIFEEQEVDMEAFLTLTDGDLKELGIKTDGSRQQILAAISELNAG [K16F] | -0.339 ± 0.14
DEDELTGILKKLSLEAYQPIFEEQEVDMEAFLTLTDGDLKELGIKTDGSRQQILAAISELNAG [K16A] | 0.074 ± 0.046
DEDELTGILKKLSLESYQPIFEEQEVDMEAFLTLTDGDLKELGIKTDGSRQQILAAISELNAG [K16S] | -0.103 ± 0.071
DEDELTGILKKLSLEPYQPIFEEQEVDMEAFLTLTDGDLKELGIKTDGSRQQILAAISELNAG [K16P] | 0.001 ± 0.066
DEDELTGILKKLSLEGYQPIFEEQEVDMEAFLTLTDGDLKELGIKTDGSRQQILAAISELNAG [K16G] | -0.135 ± 0.046
DEDELTGILKKLSLEKYMPIFEEQEVDMEAFLTLTDGDLKELGIKTDGSRQQILAAISELNAG [Q18M] | -0.035 ± 0.068
DEDELTGILKKLSLEKYCPIFEEQEVDMEAFLTLTDGDLKELGIKTDGSRQQILAAISELNAG [Q18C] | -0.146 ± 0.09
DEDELTGILKKLSLEKYEPIFEEQEVDMEAFLTLTDGDLKELGIKTDGSRQQILAAISELNAG [Q18E] | -0.119 ± 0.046
DEDELTGILKKLSLEKYPPIFEEQEVDMEAFLTLTDGDLKELGIKTDGSRQQILAAISELNAG [Q18P] | -0.786 ± 0.092
DEDELTGILKKLSLEKYAPIFEEQEVDMEAFLTLTDGDLKELGIKTDGSRQQILAAISELNAG [Q18A] | 0.07 ± 0.054
DEDELTGILKKLSLEKYFPIFEEQEVDMEAFLTLTDGDLKELGIKTDGSRQQILAAISELNAG [Q18F] | -0.407 ± 0.08
DEDELTGILKKLSLEKYHPIFEEQEVDMEAFLTLTDGDLKELGIKTDGSRQQILAAISELNAG [Q18H] | -0.221 ± 0.17
DEDELTGILKKLSLEKYLPIFEEQEVDMEAFLTLTDGDLKELGIKTDGSRQQILAAISELNAG [Q18L] | -0.092 ± 0.052
DEDELTGILKKLSLEKYNPIFEEQEVDMEAFLTLTDGDLKELGIKTDGSRQQILAAISELNAG [Q18N] | -0.538 ± 0.5
DEDELTGILKKLSLEKYIPIFEEQEVDMEAFLTLTDGDLKELGIKTDGSRQQILAAISELNAG [Q18I] | -0.051 ± 0.12
DEDELTGILKKLSLEKYGPIFEEQEVDMEAFLTLTDGDLKELGIKTDGSRQQILAAISELNAG [Q18G] | -0.078 ± 0.057
DEDELTGILKKLSLEKYRPIFEEQEVDMEAFLTLTDGDLKELGIKTDGSRQQILAAISELNAG [Q18R] | -0.025 ± 0.071
DEDELTGILKKLSLEKYDPIFEEQEVDMEAFLTLTDGDLKELGIKTDGSRQQILAAISELNAG [Q18D] | -0.344 ± 0.17
